Source: the supplement of paper PMC10567573

B1: ZNF8 (parent)
chain: RIHTGERPYMCKECGKAFSQNSSL

Variants of: B1
Experiment: protein stability index of a GFP-peptide fusion (GPS, HEK-293T) (PSI 1-6); higher = more stable
Settings: c terminus: a fixed tail appended
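Note: lentivirally expressed fusions sorted by FACS into six bins by GFP to DsRed ratio, PSI derived from sequencing read proportions per bin multiplied by bin number.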

Protein stability index of substitutions, site by site:
F18: E 3.64, T 2.85, M 2.76, C 3.03, S 3.57, G 3.35
H3: P 2.38, R 1.96, I 2.74, C 3.28, E 3.1, F 1.9, L 2.25, Q 2.47
Q20: E 3.19, Y 2.06, R 2.54, W 2.5, P 2.74, G 2.83
P8: N 2.04, Q 2.99, E 3.22, L 2.34, W 2.19, K 2.03, H 2.12, F 2.28, T 2.96
A17: N 2.99, C 2.46, H 2.42, P 2.09, W 2.65, E 2.95, G 2.42
G5: M 2.62, C 3.78, L 2.01, N 2.44
E13: P 2.07, A 2.08, K 1.78, G 1.94, D 1.39
R7: G 3.23, I 2.6, C 3.77, P 2.44, H 3.36, Y 2.39, N 3.38, M 2.77
C11: S 2.99, D 2.78, N 2.81, I 2.19, R 2.67, P 2.84, K 3.08, G 3.28, M 2.82
I2: L 2.35, K 2.51, H 2.38, A 2.41, P 3.72, W 2.33
N21: W 1.7, F 1.8, E 2.65, A 1.94, R 2.26, H 2.4
S23: M 1.98, I 2.02, H 2.9, N 2.44, L 1.77, K 3.26, E 2.88
M10: V 2.24, P 2.62, S 2.26
K12: T 2.15, P 2.54, A 3.12, D 3.02, N 2.66, L 1.72, Y 2.27, C 2.16
G15: H 2.32, L 3.05, I 1.98, M 2.67, P 2.54, Y 1.62
S19: Q 2.77, F 2.02, C 3.28, K 2.27, I 2.01, A 2.66, G 2.6, M 2.24, E 3.26, V 2, L 3.17, R 1.91
Y9: V 2.71, W 2.19, T 2.42, G 3.21, F 3.21, C 4.27, Q 2.75
C14: L 2.42, V 2.72, I 1.93, Q 3, S 2.74
T4: I 2.68, R 2.04, L 2.16, N 2.91, D 2.74, K 2.03, P 3.3, Q 3.24
S22: Q 2.58, T 2.34, W 2.22, A 2.49, E 1.98, I 1.91, P 2.6, V 1.9, Y 1.8, G 2.68, H 2, C 3.07
E6: Q 2.2, F 2.44, A 1.91, N 2.24, C 1.68, T 2.36, P 2.34
L24: A 2.99, Q 3.21, I 2.74, E 3.68, V 2.6, H 3.02, W 2.73, R 2.55
K16: A 2.24, M 2.63, L 1.71, W 2.66, R 2.3, Y 1.61, H 2.29
R1: F 1.97, Q 2.75, K 3.01
